Test results: paper PMC9439264 (Nature Communications, 2022)

Key:
[1] = biological target: T1, HAhr^CA (head region of CA4/2009 HA, degraded HA monomer in the crystal) (Influenza A virus A/California/04/2009 …, strain); assay: crystal structure; conditions: both partners purified
T1 chain: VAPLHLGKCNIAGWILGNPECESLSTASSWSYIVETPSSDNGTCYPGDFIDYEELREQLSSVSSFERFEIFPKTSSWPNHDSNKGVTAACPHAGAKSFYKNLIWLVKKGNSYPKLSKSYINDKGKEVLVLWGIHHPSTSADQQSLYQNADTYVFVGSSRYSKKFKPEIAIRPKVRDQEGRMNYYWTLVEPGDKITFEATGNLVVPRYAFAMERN

[2] = biological target: T2, HA ectodomain of A/California/04/2009 (H1N1), recombinant (Influenza A virus A/California/04/2009 …, strain); assay: SEC; conditions: both partners purified
T2 construct: source: baculovirus (pAcGP67B), H5 insect cells, supernatant purified with Ni-NTA

B1: 12H5 Fab (mouse antibody) (Fab, V domains shown)
VH: QIQLVQSGPELKKPGETVRISCKASGYTFTKNGMNWVQQAPGKGLKWVGWINTYTGEPSYADDFKGRFAFSLETSASTAYLQINNLKNEDMAAYFCARMVRDAMDFWGQGTSVTVSS
VL: DIVLTQSPASLAVSLGQRATISCKASQSVDFDGYNYLNWYQQKPGQPPKLLIYAASNLESGIPARFSGSGSGTDFTLNIHPVEEEDAATYFCQQSNEDPYTFGGGTKLEIK
notes: source: papain digestion of mAb 12H5 (mouse ascites, protein A), purified with DEAE-5PW
- binding result [1]: binds
- binding result [2]: binds
